Results from US8688427B2, “Enzyme catalysts for diels-alder reactions” (University of Washington, priority 2008, dated 2014).

What was measured:
Assay type in all cases: biochemical
[1] = Plate assay of crude cell lysate, second round of active site optimization; conditions: Combinatorial Mutation Results; 4 colonies/Kunkel assayed
Procedure: Since it was unreasonable to prepare the 176 enzyme variants in large scale, a plate assay was developed in which colonies directly from a Kunkel mutagenesis (8) reaction could be screened. Kunkel mutagenesis reactions were transformed directly into BL21(DE3)™ (Invitrogen) in order to generate each of the desired mutants. Four colonies from each plated reaction was picked and grown at 37° C. in 0.5 mL of LB-Kanamycin overnight. […]. This culture was grown for 2-3 hours at 37° C., after which 50 μL of 10 mM IPTG was added to each well (0.5 mM Final) in order to induce expression. The cells were then grown for 24 hours at 18° C., harvested, and stored at −20° C. until ready for assaying. To assay, crude cell lysate was prepared by resuspending the cells in 500 uL of PBS and lysing through 3 freeze/thaw cycles (15 minutes at −80° C., 40 minutes at 25° C.), followed by centrifugation at 4000 rpm for 30 minutes. […] Samples from each reaction were then quenched and product detected using a liquid chromatography-tandem mass spectroscopy.
To help remove some of this noise, samples showing WT activity were discarded if at least 2 of the other colonies picked from that Kunkel reaction did show an effect on activity (either greater or less than WT). […] The relative effect of each mutation was calculated. […]

Turnover number = conditions: high substrate concentrations: 3 mM diene, 100 mM dienophile, 25 μM enzyme, PBS, 298K
Procedure: The reaction was carried out in 3 mM diene, 100 mM dienophile, 25 μM enzyme, in PBS at 298K. Turnover number was calculated by subtracting the product formed in the background reaction from the product formed in the enzymatic reaction. This enzyme-produced product was then divided by the protein concentration to determine turnover number.
To quantify the number of turnovers reached before the DA—20—10 was inactivated, a reaction was setup with 25 μM enzyme, 3 mM diene, 100 mM dienophile in a PBS solution and incubated for 160 hours. Time points were taken, quenched, and filtered, and then analyzed using the liquid chromatography mass-spectroscopy assay. A standard curve ranging from 4 mM to 0.03 mM was used to quantify the amount of product produced.

[2] = Stereospecificity, chiral column LC-MSMS
Procedure: The transition states which lead to the four possible ortho-stereoisomers are shown above the reaction chromatograms. Background reaction: 2 mM diene and 70 mM dieneophile in a PBS solution for 24 hours at 298 K. DA—20—10 reaction: 50 μM protein, 0.5 mM diene, and 10 mM dieneophile in a PBS solution for 48 hours at 298K. The four stereoisomers were separated using liquid chromatography (11), and samples injected onto a Daicel AD-H column.
A liquid chromatography-tandem mass spectroscopy with a chiral column was used to detect each of the four experimentally observed stereoismers. The chiral column used in this work was the same as in (10), so it was predicted that the product peaks would come out in the same order. To validate that the endo and exo products came out as expected each was synthesized, and run either separately or together to identify the endo and exo peaks. The peaks observed come out in the same order and same time as reported in Cannizzaro et al. (10).
In order to quantify the stereospecificity of DA—20—10, a reaction with 2 mM diene, 70 mM dieneophile, PBS, pH 7.4, in the presence or absence of 80 μM protein was run for 24 hr at 298K. […] The reactions were shaken for 5 minutes, centrifuged for 5 minutes, after which the organic layer was removed and analyzed with a LC-MSMS assay. […]

B1: DA_20_10: DA_20_04 with A272N, Q149R, A173C (protein)
chain: MEIPVIEPLFTKVTEDIPGATGPVFDKNGDFYIVAPYVEVNGKPAGEILRIDLKTGKKTVICKPEVNGYGGIPIGCQCDRDANQLFVADMRLGLLVVQTDGTFEEIAKKDSEGRRMQGCAYCAFDYEGNLWITAPAGEVAPADFTISLREKFGSIYCFTTDGQMIQVDTAFQCPAGIAVRHMNDGRPYQLIVAEQPTKKLWSYDIKGPAKIENKKVWGHIPGTHKGGAAGMDFDEDNNLLVANWGSSHIEVFGPDGGQPKMRIRCPFEKPANLHFKPQTKTIFVTEHENNAVWKFEWQRNGKKQYCETLKFGIFGSLEHHHHHH
modifications: Enzyme catalyst for Diels-Alder reaction
notes: DA_20_04 with A272N, Q149R, A173C
- Relative Effect on Activity [1]: 7.96
- turnovers before the enzyme loses activity (Turnover number): more than 30 turnovers
- share of the expected 3R,4S product [2]: > 97%
- stereospecificity ([2]; 2 mM diene, 70 mM dienophile, PBS, pH 7.4, 80 μM protein, 24 hr, 298K): greater than 97 % ee
